Measured values taken from PMC8008353 (The Journal of Biological Chemistry, 2005).

B1: NF2 (N protein fragment, residues 211-422) (domain or fragment)
chain: MASGGGETALALLLLDRLNQLESKVSGKGQQQQGQTVTKKSAAEASKKPRQKRTATKQYNVTQAFGRRGPEQTQGNFGDQDLIRQGTDYKHWPQIAQFAPSASAFFGMSRIGMEVTPSGTWLTYHGAIKLDDKDPQFKDNVILLNKHIDAYKTFPPTEPKKDKKKKTDEAQPLPQRQKKQPTVTLLPAADMDDFSRQLQNSMSGASADSTQA
B2: NF4 (N protein fragment, residues 285-422) (domain or fragment)
chain: GNFGDQDLIRQGTDYKHWPQIAQFAPSASAFFGMSRIGMEVTPSGTWLTYHGAIKLDDKDPQFKDNVILLNKHIDAYKTFPPTEPKKDKKKKTDEAQPLPQRQKKQPTVTLLPAADMDDFSRQLQNSMSGASADSTQA

Biological target: the molecule itself
Assay: AUC

Protein | stoichiometry N
B1 | 2
B2 | 2
